Reference: the nanobody polyreactivity screen of Harvey et al. (2022)

Assay: yeast display, Sf9 membrane polyspecificity reagent, FACS + sequencing; frameworks hold sequencing errors
Outline: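 Genes from sorted yeast were amplified by colony PCR, read by MiSeq 2 × 250 sequencing and filtered on CDR length. These cells carried a synthetic nanobody library in Saccharomyces cerevisiae BJ5465 and were sorted by FACS into low and high (top ~1%) gates on anti-HA and streptavidin fluorescence. Polyreactivity is labelled according to the gate of origin.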

| Sequence | polyreactivity (PSR sort gate) |
| --- | --- |
| QVQLVESGGGLVKAGGSLRLSCAASGSISAGNAMGWNIHAPGKERELVAAISGSGGSTFYADSVKGRFTISRYNAKNSVYLQINSLKPEDTAVYYCAARGGYRLRYIPYVRYDYWGQGTQVTVSS | high polyreactivity |
| QVQLVESGGGLVQAGGSLRLSCAASGSIFKWYAMGWYRQAPGKEREFVAAITNGGGSTYYADSVKGRFTISRDNAKNTVYLQMNSLKPEDTAVYYCAKDGHSYYPWEYDYWGQGTQVTVSS | low polyreactivity |
| QVQLVESGGGLVQAGGSLRLSCAASGSIFGLYTMGWYRQAPGKERELVAAISGGGGSTYYADSVKGRFTISRDNAKNTVYLQMNSLKPEDTAVYYCAADLELSEWYDYWGQGTQVTVSS | low polyreactivity |
| QVQLVESGGGLVQAGGSLRLSCAASGSTIIAYAMGWYRQAPGKERELVAAITTGDSTNYADSVKGRFTISRDNAKNTVYLQMNSLKPEDTAVYYCNADATDFHFLSEIGSSQEGDYWGQGTQVTVSS | low polyreactivity |
| QVQLVESGGGLVQAGGSLRLSCAASGRIFNENAMGWYRQAPGKERELVAAISRRGGTTYYADSVKGRFTISRDNAKNTVYLQMNSLIPEDTAVYYCNARYSKKGESQREYDYWGQGTQVTVSS | low polyreactivity |
| QVQLVESGGGLVQAGGSLRLSCAASGIIFWYNAMGWYRQAPGKERELVAAISWSGGRTYYADSVKGRFTISRDNAKNTVYLQMNSLKPEDTAVYYCAAKVPRSSRSYGYWGQGTQVTVSS | high polyreactivity |
| HVQLVESGGGLVQAGGSLRLSCAASGIIFITNAMGWYRQAPGKERELVAAISSTVSTYYADSVKGRFTISRDKAKNTVYLQMNRLKPADTAVYYCAAEWGLTQGESIYDYWGQGTQVTVSS | low polyreactivity |
| QVQLVESGGGLVQAGGSLRISCAASGFTFRSYAMGWYRQAPGKERELVAAISWRGGRTYYADSVKGRFTISRDNAKNTVYLQMNSLKPLDTAVYYCATDWYWGSYAPYTTRAHFDYWGQGTQVTVSS | high polyreactivity |
| QVQLVESGGGLVQAGGSLRLSCAASGFTFSKYAMLWYRQAPGKEREFVAAISSRGGRTYYADSVKGRFTISRDNAKNTVYLQMNSLKPEDTAVYYCAVDVHLVTEYDYWGQGTQVTVSS | high polyreactivity |
| QVQLVESGGGLVQAGGSLRLSCAASGFTFYTNAMGWYRPAPWKERELVAAIYARTGRTYYADSVKGRFTISRDNAKNTVFLQMNSLKPEDTAVYYCAKDRQSSSTDYGYWGQGTQVTVSS | high polyreactivity |
| QVQLVESGGGLVQAGGSLRLSCAASGFTLGSNAMGWYRQAPGKERELVAAISKSGGSTYYADSVKGRFTISRDNAKNTVYLQMNSLKPEDTAVYYCAARYLYQGYRYDYWGQGTQVTVSS | high polyreactivity |
| QVQLVESGGGLVQAGGSLRLSCAASGRIFRFYVMGWYRQAPGKERELVAAISDSSPSTYYADSVKGRFTISRDNAKKTVYLQMNSLKPEDTAVYYCAARYPPYWSYDYDYWGQGTQVTVSS | low polyreactivity |
| IIQAGGSLRLSCAASGGTFFVYMGWYRQAPGKERELVADISGFGGGTYYADSVKGRFTISRDNAKNTVYLQMNSLKPEYTAVYYCATVVPTGIIRMYWGQGTQVTVSS | low polyreactivity |
| QVQLVESGGGLVQAGGSLRLSCAASGNIFYPNAMGWYRQAPWKERELVARISWRGVSTYYADSVKGRFTISRDNAKNNVYLQMNSLKPEDTEVYYCNVRPYYGRTRIKYDYWGQGTQVTVSS | high polyreactivity |
| QVQRVESGGGLVQAGGRLRLSCAASGRTFDNYAMGWYIQAPGKERELVSAISGGGGTNYADSVKGRFTISPDNAKNTVYLQMNSLKPEDTAVYYCAADTNGYEFDYWGQGTQVTVSS | low polyreactivity |
| QVQLVESGGGLVQAGGSLRLSCAASGIIFYGYAMGWYRQAPGKERELVAGISSGGSTYYADSVKGRFTISRDNAKNTVYLQMNSLKPVDTAVSYCNADGGYSYESTDHYGYDYWGQGTQVTVSS | low polyreactivity |
| QVQHVESGGGLVQAGGSLRLSCAASGRIFDTYTMGWYRAAPGKVRELVAAITSGGSTYYADSVKGRFTISRDNATNTVYLQMNSLKPEDTAVYYCAARYRSIIRYYYWGQGTQVTVSS | high polyreactivity |
| QVQLVESGGGLVQAGGSIRLSCAASGSIFGSNAMGWYRQAPGKERELVDAISGSGGSTNYADSVKGRFTISRDNAKNTVYLQMNSLKAEDTAVYYCAVPSKATGSASTSSGIFDSWGQGTQVTVSS | low polyreactivity |
| QVQLVESGGGLVQAGGSLRLSCASSGITFTFYVMGWYRQAPGKERELVAAISSGGGRTYYADSVKGRFTISRDNAKNTVYLQMNSLKPEDTAVYYCNAALYHDSEYNYWGQGTQVSVSS | high polyreactivity |
| QVQLVESGGGLVQAGGSLRLSCAASGSTFTRYGMGWYRQAPGKERELGAAITTSGSSTYYADSVKGRFTISRDNAKNTVYLQMNSLKPEDTAVYYCAADWSSWGFDYWGQGTQVTVSS | low polyreactivity |
| QVQLVESGGGLVQAGGSLRLSCAASGRIFSRNTMGWYRQAPGKERELVATITSAGSTTYADSVKGRFTISRDNAKNTVYLQMNRLKPEDTAVYYCAARSWKRRVGRDYWGQGTQVTVSS | high polyreactivity |
| QVQLVESGGGLVQAGGSLRLSCAASGFIFSSYTMGWYRQAPGKERELVAAITSRGGSTYYADSVKGRLTISRDNAKNTVYLQMNSLKPEDTAVYDWNARRIPYSPYGVHEGYYWGLGTQVTVSS | high polyreactivity |

| Sequence | polyreactivity (PSR sort gate) |
| --- | --- |
| QVQLVESGGGLVQAGGSLRLSCAASGRIFGSYALGWYRQAPGKERELVAAISSGGSTSYADSVKGRFTISRDNAKNTVYLQMNSLKPEDTAVDYCNRLRLFRGRGDYWGQGTQVTVSS | high polyreactivity |
| QVQLVESGGGLVQAGGSLRLSCAASGSTFYIYAMGWYRQAPGKEREFFAAITWSGGRTFYADSVKGRFTISRDNAKNTVYFQMNSLKPEDTAVYYCAARFWSDKTGSRYYYWGQGTQVTVSS | high polyreactivity |
| QVQLVESGGGLVQAGGSLRLSCAASGYIIGGNAMGWYRQAPGKERELVAVISSRGGRTYYADSVKGRFTISRDNAKNTVYLQMNSLKPEDTAVSYCNRDFSYQYKRDYWGQGTQVTVSS | high polyreactivity |
| QVQLVESGGCLVQAGGILRLSCAASGSIFVGYDMGWYRQAPGKERELVAAITGTVSTYYADSVKGRFTISRDNAKNTVYLQMNSLKPEDTAVYYCAAEFVYAYGDGGVYWSWMEYWGQGTQVTVSS | low polyreactivity |
| QGQLVESGGGLVQAGGSLRLSCAASGSTFRLYAMGWYRQAPGKERELVAAISQRGASTYADSVKGRFTISRDNAKNTLNLQMNSLKPEDTAFYYCSAVRNCRYWYRQYGFCGQGTQVTVSS | high polyreactivity |
| QVQLVESAAGLFQAGGRLRLSCAASGRICGFYAKGWYTQAPGKQRDLVAAITVSGSSTRYADSVKGRFTISRDNAKNTVYLQMNSLKPEDTAVYYCAARIRAKYSYGYWGQVTQVTVSS | high polyreactivity |
| QVQLVESGGGLVQAGGSLRLSCAASGRTFPLYDMGWYRQAPGKERELVAAISLSGGRTYYADSVKGRFTISRDNAKNTVYLQMNSLKPEDTAVYYCAARGTLSAQVGIRRYDYWGQGTQVTVSS | low polyreactivity |
| QVQLVESGGGLVQAGGSLRLSCAASGRTFRRNAMGWYRQAPGKERELVAAINSGGSTYYADSVKGRFTISRDNAKNTDYLQMNSLKPEDTAVYYCAASGSKYVQSYSRYDYWGQGTQVTVSS | high polyreactivity |
| QVQLVESGGGLVQAGGSLRLSCAASGRIFKGYAMGWYRQAPGKERELVAAITWRGGTTYYADSVKGPFTISRDNAKNTVYLQMNSLKPEDTAVYYCAAANWQRYYYWGQGTQVTVSS | high polyreactivity |
| QVQLQESGGGLVQAGGSQRLTCAASGYIFYFQYMGWYRPAPGKEREFVAAISDGANTNYADSVKGRFTISRDNAKNTEYLQMNSLKPEDTAVYYCSVYADENYYYIYWGQGTQVTVSS | low polyreactivity |
| QVQLVESGGGLVQAGGSLRLSCAASGRIFPSYAMGWYRPAPGKERELVAAITRGSTTYYADSVKGRFTISRDNAKNTVYLQMNSLKPEDTAVYYCAAEENLAYYFKYYYWGQGTQVTVSS | low polyreactivity |
| QVQLVESGGGLVQAGGSLRLSCAASGRIFLVNAMGWYRQAPGKEREFVAAITDNPGSTYYADSVKGRFTISRDNAKNTVYLQMNSLKPEDTAVYYCAKQRGNKRIGYDSWGQGTQVTVSS | low polyreactivity |
| QVQLVESVGGLVQAGGSLRLSCAASGFIIRYYAMGWYRQAPGKERELVAVISSNGARTSYADSVKGRFTISRDNAKNTVYLQMNSLKPEDTAVYYCNARAWSRFPPVGHDYWGQGTQVTVSS | high polyreactivity |
| QVQLVESGGGLVQAGGSLRLSCAASGRISPKNAMGWNTQAPGKERELVATIRKIGGRTYYADSVKGRFTISRDNAKNTVYLQMNSLKPEDTAVYYCATDFAPSYYPDRFDYWGQGTQVTVSS | low polyreactivity |
| QVQLVESAGGLVQAGGSLRLSCAASGRIFARYAMGWYRQAPGKVRELVAAISASGGSTYYADSVKGRFTISRDNAKYTVYLQMNSLKPEDTAVYYCAARFSYPYRIAFNYWGQGTQVTVSS | low polyreactivity |
| QVQLVESGGGLVQAGGSLRLSCAASVFTIPRYAMGWYRQAPGKETELFAAITSGGSTYYADSVKGRFTISRDNAKNTVYLQMNSLKPEDTAVYYWASRAVWSSWGSRYDSWGHGTQVTVSS | high polyreactivity |
| QVQLVESGGGLVQAGGSLRLICAASGRTFGTNTMGWYRQAPGKERELVATISSSSGSTYYADSVKGRFTISRDNAKNTVYLQMNSLKPEDSAVYYWAALYRWGYKRYDYWGQGTQVTVSS | high polyreactivity |
| QVQLVESGGGLVQAGGSLRLTCAASGLTFSFYAMGWYRQAPGKEWELVAALSKGGGSTSYADSVKGRFTISRDNAKNTFYLQRNSLKPGDTAVYSCAAKDYKAPNKRLYDYWGQGTQVTVSS | high polyreactivity |
| QVQLVESGGGLVQAGGSLRLSCAASGSTFGRYAMGWYRQAPGKERELVAAISESDGSTYYADSVKGRFTISRDNAKNTVYLQMNSLKPEDTAVYYCAAEWTHYWWYQYDYWGQGTQVTVSS | high polyreactivity |
| QVQLVDSGGGLVQAGGSLRLSCAASGRIVELYAMGGYRQAPGKEREMVAVITNGGSTYYADSVKGRFTISRDNAKNTVYLQMNSLKPEDTAFYFCNARRGYNRVGGSYGYWGQGTQVTVSS | low polyreactivity |
| QVQLVESGGGLVQAGGSLRLTCAASGSTFLFYARGWYRQAPGKERELVAAIRGRGGSTYYADSVKGRFTISRDNAKNTVYLQMNSLKPEDTAVYYCAALSRFPVNRYSDLDLYYWGEGTQVTVSS | high polyreactivity |
